# Source: patent publication US20180155451A1 (published 2018)
# T1: FcγRIIa H (FcγRIIa type H, His at position 131), extracellular domain with C-terminal His tag (human, UniProt P12318 34-217)
# T1 construct: extracellular domain; Expressed in FreeStyle293 cells; analyte in the Biacore assay; also called FcgRIIa H; 2aH; not shown: His tag at the C terminus
# T1 sequence (looked up): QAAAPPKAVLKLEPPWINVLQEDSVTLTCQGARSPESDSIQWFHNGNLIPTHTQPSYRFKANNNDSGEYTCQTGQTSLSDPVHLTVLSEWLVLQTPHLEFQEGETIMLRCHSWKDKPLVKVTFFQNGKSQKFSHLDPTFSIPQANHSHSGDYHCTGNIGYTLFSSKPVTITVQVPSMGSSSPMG
# T2: FcγRIIa H (human, UniProt P12318 34-217)
# T2 construct: extracellular domain; Soluble extracellular domain with C-terminal His tag, expressed in FreeStyle293 cells; also called FcgRIIa H; 2aH; not shown: C-terminal His tag
# T2 sequence (looked up): T1 sequence (looked up)
# T3: FcγRIIb (human, UniProt P31994 43-217)
# T3 construct: extracellular domain; Soluble extracellular domain with C-terminal His tag, expressed in FreeStyle293 cells; also called FcgRIIb; 2b; not shown: C-terminal His tag
# T3 sequence (looked up): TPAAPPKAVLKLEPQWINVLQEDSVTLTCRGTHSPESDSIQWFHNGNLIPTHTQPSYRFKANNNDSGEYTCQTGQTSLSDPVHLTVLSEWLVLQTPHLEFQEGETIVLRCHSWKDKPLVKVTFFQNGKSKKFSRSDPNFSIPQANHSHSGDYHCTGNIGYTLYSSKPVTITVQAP
# T4: FcγRIIb, extracellular domain with C-terminal His tag (human, UniProt P31994 43-217)
# T4 construct: extracellular domain; Expressed in FreeStyle293 cells; analyte in the Biacore assay; also called FcgRIIb; 2b; not shown: His tag at the C terminus
# T4 sequence (looked up): T3 sequence (looked up)
# B1: GpH7-A5/GpH7-B3 variant S324_10E/GpL16-k0 (antibody, human IgG1, kappa)
# heavy 1: not shown
# heavy 2: not shown
# light: DIVMTQSPLSLPVTPGEPASISCQASESLVHSNRNTYLHWYLQKPGQSPQLLIYKVSNRFSGVPDRFSGSGSGTDFTLKISRVEAEDVGVYYCSQNTHVPPTFGQGTKVEIERTVAAPSVFIFPPSDEQLKSGTASVVCLLNNFYPREAKVQWKVDNALQSGNSQESVTEQDSKDSTYSLSSTLTLSKADYEKHKVYACEVTHQGLSSPVTKSFNRGEC
# notes: He Ab; IgG1; mutation in one H chain only; also called He Ab
# B2: GpH7-A5/GpH7-B3 variant Y300_12R/GpL16-k0 (antibody, human IgG1, kappa)
# heavy 1: not shown
# heavy 2: not shown
# light: B1 light
# notes: as for B1
# B3: GpH7-A5/GpH7-B3 variant Y300_14T/GpL16-k0 (antibody, human IgG1, kappa)
# heavy 1: not shown
# heavy 2: not shown
# light: B1 light
# notes: as for B1
# B4: GpH7-A5/GpH7-B3 variant Y300_13S/GpL16-k0 (antibody, human IgG1, kappa)
# heavy 1: not shown
# heavy 2: not shown
# light: B1 light
# notes: as for B1
# B5: GpH7-A5/GpH7-B3 variant S324_18N/GpL16-k0 (antibody, human IgG1, kappa)
# heavy 1: not shown
# heavy 2: not shown
# light: B1 light
# notes: as for B1
# B6: GpH7-A5/GpH7-B3 variant S324_11K/GpL16-k0 (antibody, human IgG1, kappa)
# heavy 1: not shown
# heavy 2: not shown
# light: B1 light
# notes: as for B1
# B7: GpH7-A5/GpH7-B3 variant S324_12R/GpL16-k0 (antibody, human IgG1, kappa)
# heavy 1: not shown
# heavy 2: not shown
# light: B1 light
# notes: as for B1
# B8: GpH7-A5/GpH7-B3 variant S324_16H/GpL16-k0 (antibody, human IgG1, kappa)
# heavy 1: not shown
# heavy 2: not shown
# light: B1 light
# notes: as for B1
# B9: GpH7-A5/GpH7-B3 variant S324_19Q/GpL16-k0 (antibody, human IgG1, kappa)
# heavy 1: not shown
# heavy 2: not shown
# light: B1 light
# notes: as for B1
# B10: GpH7-A5/GpH7-B3 variant G237_02A/GpL16-k0 (antibody, human IgG1, kappa)
# heavy 1: not shown
# heavy 2: not shown
# light: B1 light
# notes: Heterodimerized anti-glypican-3 IgG1; alteration in the GpH7-B3 chain only; also called He Ab
# B11: GpH7-A5/GpH7-B3 variant P238_03V/GpL16-k0 (antibody, human IgG1, kappa)
# heavy 1: not shown
# heavy 2: not shown
# light: B1 light
# notes: as for B10
# B12: GpH7-A5/GpH7-B3 variant G237_13S/GpL16-k0 (antibody, human IgG1, kappa)
# heavy 1: not shown
# heavy 2: not shown
# light: B1 light
# notes: as for B10
# B13: GpH7-A5/GpH7-B3 variant S267_06M/GpL16-k0 (antibody, human IgG1, kappa)
# heavy 1: not shown
# heavy 2: not shown
# light: B1 light
# notes: as for B10
# B14: GpH7-A5/GpH7-B3 variant P238_13S/GpL16-k0 (antibody, human IgG1, kappa)
# heavy 1: not shown
# heavy 2: not shown
# light: B1 light
# notes: as for B10
# B15: GpH7-A5/GpH7-B3 variant V266_06M/GpL16-k0 (antibody, human IgG1, kappa)
# heavy 1: not shown
# heavy 2: not shown
# light: B1 light
# notes: as for B10
# B16: GpH7-A5/GpH7-B3 variant P238_04F/GpL16-k0 (antibody, human IgG1, kappa)
# heavy 1: not shown
# heavy 2: not shown
# light: B1 light
# notes: as for B10
# B17: GpH7-A5/GpH7-B3 variant G237_15Y/GpL16-k0 (antibody, human IgG1, kappa)
# heavy 1: not shown
# heavy 2: not shown
# light: B1 light
# notes: as for B10
# B18: GpH7-A5/GpH7-B3 variant G237_09D/GpL16-k0 (antibody, human IgG1, kappa)
# heavy 1: not shown
# heavy 2: not shown
# light: B1 light
# notes: as for B10
# B19: GpH7-A5/GpH7-B3 variant G237_14T/GpL16-k0 (antibody, human IgG1, kappa)
# heavy 1: not shown
# heavy 2: not shown
# light: B1 light
# notes: as for B10
# Target: T1, FcγRIIa H (FcγRIIa type H, His at …)
# Assay: SPR Biacore; He/Con_2aH divided by He/Con_2b (reference: FcgRIIb)
row,He_2aH/2b (IIaH/IIb),Binder
1,1.33,B1
2,1.34,B2
3,1.69,B3
4,1.64,B4
5,1.21,B5
6,1.34,B6
7,1.53,B7
8,1.22,B8
9,1.44,B9

# Target: T2, FcγRIIa H
# Assay: SPR (Biacore), antibody captured, FcγR as analyte; relative to HeCon Ab
# Description: (§1) The heterodimerized antibodies He Abs in which one of the H chains was introduced with an alteration were assayed for their binding activities to each activating FcγR and inhibitory FcγR according to the method described in Example 4. […] The activating FcγRs in FIGS. 26, 27, 28, and 29 are FcγRIa, FcγRIIa (R), FcγRIIa (H), and FcγRIIIa, respectively.
# (§2) Analysis of interaction between objective antibody and the FcγR was carried out using Biacore T100 (GE Healthcare). HBS-EP+ (GE Healthcare) was used as the running buffer, and the measurement temperature was set to 25° C. Chips produced by immobilizing the antigen peptide by the amine coupling method to a Series S Sencor Chip CM5 (GE Healthcare), or alternatively, chips produced by allowing preliminarily biotinylated antigen peptides to interact with and immobilize onto a Series S Sensor Chip SA (certified) (GE Healthcare) were used. Antibodies of interest were captured onto an antigen peptide-immobilized chip, and allowed to interact to each FcγR diluted with running buffer. To regenerate and repeatedly use the chip, the antibodies captured on the chip were washed off by reacting 10 mM glycine-HCl, pH 1.5.
row,He/Con_2aH,Binder
1,34 % of GpH7-A5/GpH7-B3/GpL16-k0 (=100),B10
2,89 % of GpH7-A5/GpH7-B3/GpL16-k0 (=100),B11
3,29.8 % of GpH7-A5/GpH7-B3/GpL16-k0 (=100),B12
4,34.3 % of GpH7-A5/GpH7-B3/GpL16-k0 (=100),B13
5,50.9 % of GpH7-A5/GpH7-B3/GpL16-k0 (=100),B14
6,83.9 % of GpH7-A5/GpH7-B3/GpL16-k0 (=100),B15
7,65.4 % of GpH7-A5/GpH7-B3/GpL16-k0 (=100),B16
8,25.4 % of GpH7-A5/GpH7-B3/GpL16-k0 (=100),B17
9,11.1 % of GpH7-A5/GpH7-B3/GpL16-k0 (=100),B18
10,31.8 % of GpH7-A5/GpH7-B3/GpL16-k0 (=100),B19

# Target: T3, FcγRIIb
# Assay: as above
# Description: as §1, §2
row,He/Con_2b,Binder
1,124 % of GpH7-A5/GpH7-B3/GpL16-k0 (=100),B10
2,120 % of GpH7-A5/GpH7-B3/GpL16-k0 (=100),B11
3,111 % of GpH7-A5/GpH7-B3/GpL16-k0 (=100),B12
4,210 % of GpH7-A5/GpH7-B3/GpL16-k0 (=100),B13
5,70.4 % of GpH7-A5/GpH7-B3/GpL16-k0 (=100),B14
6,251 % of GpH7-A5/GpH7-B3/GpL16-k0 (=100),B15
7,312 % of GpH7-A5/GpH7-B3/GpL16-k0 (=100),B16
8,152 % of GpH7-A5/GpH7-B3/GpL16-k0 (=100),B17
9,223 % of GpH7-A5/GpH7-B3/GpL16-k0 (=100),B18
10,54.8 % of GpH7-A5/GpH7-B3/GpL16-k0 (=100),B19

# Target: T1, FcγRIIa H (FcγRIIa type H, His at …)
# Assay: SPR Biacore, captured antibody, FcgR analyte; GpH7-A5/GpH7-B3/GpL16-k0 = 100
row,He/Con_2aH,Binder
1,103 % of HeCon Ab,B1
2,55.4 % of HeCon Ab,B2
3,94.1 % of HeCon Ab,B3
4,88.1 % of HeCon Ab,B4
5,97.8 % of HeCon Ab,B5
6,92.2 % of HeCon Ab,B6
7,96.5 % of HeCon Ab,B7
8,102 % of HeCon Ab,B8
9,96 % of HeCon Ab,B9

# Target: T4, FcγRIIb, extracellular domain with …
# Assay: as above
row,He/Con_2b,Binder
1,77.4 % of HeCon Ab,B1
2,41.2 % of HeCon Ab,B2
3,55.6 % of HeCon Ab,B3
4,53.9 % of HeCon Ab,B4
5,81.1 % of HeCon Ab,B5
6,68.6 % of HeCon Ab,B6
7,63.1 % of HeCon Ab,B7
8,83.5 % of HeCon Ab,B8
9,66.8 % of HeCon Ab,B9
